From the RNAGym collection of RNA variant scans (doi:10.7554/elife.80360)

B1: Twister Ribozyme (parent)
chain: AACACUGCCAAUGCCGGUCCCAAGCCCGGAUAAAAGUGGAGGGGGCGG

Variants of: B1
Experiment: self-cleavage, relative activity (ratio to wild type); higher = more cleavage; co-transcriptional
Work on A4G A10C yielded a self-cleavage of 0.762.
Work on U37G G42C yielded a self-cleavage of 0.103.
Variant A1G C19G has a self-cleavage of 0.202.
C5U C19U showed a self-cleavage of 0.819.
C19G G41C gave a self-cleavage of 0.136.
U12G A32U gave a self-cleavage of 0.958.
U18C C20G showed a self-cleavage of 0.102.
For G43C G44U, the self-cleavage was 0.455.
Work on A11U A35U yielded a self-cleavage of 1.12.
C15G A22U showed a self-cleavage of 0.0572.
G24U G43U gave a self-cleavage of 0.0757.
Variant A30G G48U has a self-cleavage of 0.96.
In the case of C25U A30U, the self-cleavage is reported as 0.932.
For A11C G36C, the self-cleavage was 0.636.
Variant A2U C19U has a self-cleavage of 0.163.
A23U C46A showed a self-cleavage of 0.325.
Variant A22C G43A has a self-cleavage of 0.183.
Work on A1C A10G yielded a self-cleavage of 0.133.
Work on C3A G44U yielded a self-cleavage of 0.253.
C21G A33C gave a self-cleavage of 0.152.
Work on A1C U6A yielded a self-cleavage of 0.189.
G28C G38A showed a self-cleavage of 0.743.
For U31G G47A, the self-cleavage was 0.782.
A1U A23U showed a self-cleavage of 0.0522.
U18G A32G gave a self-cleavage of 0.0643.
For C3U G39C, the self-cleavage was 0.0856.
In the case of U31G G48A, the self-cleavage is reported as 0.992.
Work on C27G G44C yielded a self-cleavage of 0.133.
Work on C3U G47A yielded a self-cleavage of 0.361.
A2G A23C showed a self-cleavage of 0.0651.
In the case of U12A U18C, the self-cleavage is reported as 0.623.
In the case of G7U G42C, the self-cleavage is reported as 0.0955.
G17A U37A showed a self-cleavage of 0.207.
A40G G48C showed a self-cleavage of 0.14.
Variant G28A G47A has a self-cleavage of 0.545.
With U6G G16U the self-cleavage was 0.296.
C19A C21U gave a self-cleavage of 0.0833.
With U6C C21A the self-cleavage was 0.0427.
Work on U6G C25U yielded a self-cleavage of 0.252.
Variant A11G C19A has a self-cleavage of 0.221.
With A2G G28A the self-cleavage was 0.269.
With G28A A33U the self-cleavage was 0.707.
G29U G42A showed a self-cleavage of 0.224.
A2C G24A gave a self-cleavage of 0.0674.
Work on A2G C15A yielded a self-cleavage of 0.136.
Work on G38C yielded a self-cleavage of 0.951.
C20U A30G gave a self-cleavage of 0.823.
C3G G38U gave a self-cleavage of 0.607.
C26U C27U gave a self-cleavage of 0.115.
Variant C26U C27G has a self-cleavage of 0.0958.
Work on C9A G36U yielded a self-cleavage of 0.0953.
Variant A4C G42C has a self-cleavage of 0.125.
Variant C26U G48U has a self-cleavage of 0.32.
C26U G48C gave a self-cleavage of 0.301.
Variant U18A A32G has a self-cleavage of 0.407.
G38U G41C showed a self-cleavage of 0.149.
Work on C3G G7C yielded a self-cleavage of 0.0501.
C9U G16U showed a self-cleavage of 0.373.
A4G A35C gave a self-cleavage of 0.865.
Work on G13C C19G yielded a self-cleavage of 0.125.
In the case of C3U G45C, the self-cleavage is reported as 0.179.
With A1C G48U the self-cleavage was 0.212.
Work on G7C G28C yielded a self-cleavage of 0.0717.
Variant G17A U31G has a self-cleavage of 0.706.
Variant C26G A34U has a self-cleavage of 0.15.
C19G G36A showed a self-cleavage of 0.101.
Variant C5U A33G has a self-cleavage of 0.631.
G7C G48A gave a self-cleavage of 0.0718.
Work on A4C G24A yielded a self-cleavage of 0.0887.
Work on U6C G29C yielded a self-cleavage of 0.173.
In the case of G7C G16A, the self-cleavage is reported as 0.0653.
Variant A35G U37A has a self-cleavage of 0.574.
With C9G A23C the self-cleavage was 0.0567.
C20A G29C showed a self-cleavage of 0.0857.
G7U C20G showed a self-cleavage of 0.0693.
In the case of G17U G39C, the self-cleavage is reported as 0.0939.
With C3G U37A the self-cleavage was 0.421.
Work on C3G U37C yielded a self-cleavage of 0.18.
In the case of A33U G43C, the self-cleavage is reported as 0.101.
A35U G45U showed a self-cleavage of 0.812.
With A1G G24A the self-cleavage was 0.144.
For C25A G36A, the self-cleavage was 0.0755.
With C25A G36U the self-cleavage was 0.0554.
Variant U6C U31A has a self-cleavage of 0.581.
U6C U31G gave a self-cleavage of 0.422.
With U6C U31C the self-cleavage was 0.712.
Variant G16C A35G has a self-cleavage of 0.483.
G24U G42U gave a self-cleavage of 0.0953.
For G13A U31C, the self-cleavage was 0.962.
C9G G48U showed a self-cleavage of 0.377.
With A1C G42C the self-cleavage was 0.239.
Variant G24C A40C has a self-cleavage of 0.141.
Work on C9U A32C yielded a self-cleavage of 0.64.
A23C G45U showed a self-cleavage of 0.156.
Variant G17A G47U has a self-cleavage of 0.489.
G36U A40C gave a self-cleavage of 0.122.
C9U C27G gave a self-cleavage of 0.0911.
U37C G38A gave a self-cleavage of 0.166.
For G13A A40G, the self-cleavage was 0.185.
A22U G36C showed a self-cleavage of 0.19.
A23U C25U gave a self-cleavage of 0.116.
With C20A U37A the self-cleavage was 0.0773.
Variant C19A A35G has a self-cleavage of 0.095.
Work on A1G A11U yielded a self-cleavage of 0.47.
Work on G17U A35U yielded a self-cleavage of 0.372.
U12G U18A showed a self-cleavage of 0.46.
Variant U12G U18C has a self-cleavage of 0.437.
C15A U31C showed a self-cleavage of 0.718.
Work on U6A G7A yielded a self-cleavage of 0.224.
For U18C C19A, the self-cleavage was 0.0644.
Variant C14G A40C has a self-cleavage of 0.067.
With A11G G48A the self-cleavage was 0.884.
Work on C19A C27A yielded a self-cleavage of 0.0712.
Variant G16C G47U has a self-cleavage of 0.602.
For G29U A30G, the self-cleavage was 1.
Work on C26A G36U yielded a self-cleavage of 0.091.
Work on A33U G38C yielded a self-cleavage of 0.77.
Variant A11U C46G has a self-cleavage of 0.978.
For G13C A34C, the self-cleavage was 0.0766.
A23G G29C showed a self-cleavage of 0.1.
Work on G24A G42U yielded a self-cleavage of 0.091.
Work on A22C G48U yielded a self-cleavage of 1.03.
Variant C3G U18G has a self-cleavage of 0.0365.
For A1U C26U, the self-cleavage was 0.0863.
A1C G24A showed a self-cleavage of 0.161.
Work on G28U C46G yielded a self-cleavage of 0.765.
With G13C G39U the self-cleavage was 0.108.
C15A G45U gave a self-cleavage of 0.528.
Variant C14G G45U has a self-cleavage of 0.101.
Variant A30U G41C has a self-cleavage of 0.286.
Variant C8A G48U has a self-cleavage of 0.257.
Work on U12A C14G yielded a self-cleavage of 0.0875.
For A1C G41C, the self-cleavage was 0.14.
With A1G G38A the self-cleavage was 0.432.
In the case of C26G G44A, the self-cleavage is reported as 0.515.
C3U C19U gave a self-cleavage of 0.374.
C5G G38C showed a self-cleavage of 0.219.
With A4U A35C the self-cleavage was 0.129.
U12A C21G showed a self-cleavage of 0.122.
C8A A40C showed a self-cleavage of 0.113.
Variant C5A C9U has a self-cleavage of 0.0659.
With U12G C19U the self-cleavage was 0.998.
U6A G47A gave a self-cleavage of 0.862.
Work on G17C G48U yielded a self-cleavage of 0.163.
A11U G16A gave a self-cleavage of 0.804.
C26G A35G showed a self-cleavage of 0.16.
U6G C46G showed a self-cleavage of 0.406.
In the case of G16A G44C, the self-cleavage is reported as 0.871.
G39C G44A showed a self-cleavage of 0.137.
Work on G13A C15U yielded a self-cleavage of 0.579.
With A4G C20U the self-cleavage was 1.06.
With U37G G39U the self-cleavage was 0.114.
A23C G28A gave a self-cleavage of 0.225.
In the case of A40G G45U, the self-cleavage is reported as 0.147.
Variant G17U U18C has a self-cleavage of 0.126.
For A23C C26G, the self-cleavage was 0.12.
Work on G29U G39C yielded a self-cleavage of 0.116.
Variant G29U G39U has a self-cleavage of 0.223.
C5A C46U showed a self-cleavage of 0.681.
A10U G41A showed a self-cleavage of 0.626.
For C14A C46G, the self-cleavage was 0.87.
Work on C8A C26A yielded a self-cleavage of 0.106.
Variant U18C G24U has a self-cleavage of 0.079.
C8A U31A gave a self-cleavage of 0.433.
With U31A G38A the self-cleavage was 0.509.
Variant C14U G16C has a self-cleavage of 0.36.
In the case of A1U A40U, the self-cleavage is reported as 0.0682.
